Assay results: publication PMC10247859, “Replisome-cohesin interactions provided by the Tof1-Csm3 and Mrc1 cohesion establishment factors” (Chromosoma, 2023)

Key:
Settings in all cases: both partners purified
[1] = target: T1, Tof1 (S. cerevisiae (budding yeast), UniProt P53840 1-1238); experiment: cross-linking; CLMS with sulfo-SDA; cohesin, Tof1-Csm3 and Chl1 with or without Mrc1 at 300-350 nM, 30 °C 5 min, cross-linker 2 h at 4 °C, UV 365 nm; LC-MS/MS, 1% FDR at residue-pair level; two samples merged
T1 construct: Tof1, budding yeast; the Tof1 chain of m2; Stood in the cross-linking sample as a chain of the Tof1-Csm3 complex; source: purified as part of Tof1-Csm3, as previously described (Yeeles et al. 2017)
T1 sequence (looked up): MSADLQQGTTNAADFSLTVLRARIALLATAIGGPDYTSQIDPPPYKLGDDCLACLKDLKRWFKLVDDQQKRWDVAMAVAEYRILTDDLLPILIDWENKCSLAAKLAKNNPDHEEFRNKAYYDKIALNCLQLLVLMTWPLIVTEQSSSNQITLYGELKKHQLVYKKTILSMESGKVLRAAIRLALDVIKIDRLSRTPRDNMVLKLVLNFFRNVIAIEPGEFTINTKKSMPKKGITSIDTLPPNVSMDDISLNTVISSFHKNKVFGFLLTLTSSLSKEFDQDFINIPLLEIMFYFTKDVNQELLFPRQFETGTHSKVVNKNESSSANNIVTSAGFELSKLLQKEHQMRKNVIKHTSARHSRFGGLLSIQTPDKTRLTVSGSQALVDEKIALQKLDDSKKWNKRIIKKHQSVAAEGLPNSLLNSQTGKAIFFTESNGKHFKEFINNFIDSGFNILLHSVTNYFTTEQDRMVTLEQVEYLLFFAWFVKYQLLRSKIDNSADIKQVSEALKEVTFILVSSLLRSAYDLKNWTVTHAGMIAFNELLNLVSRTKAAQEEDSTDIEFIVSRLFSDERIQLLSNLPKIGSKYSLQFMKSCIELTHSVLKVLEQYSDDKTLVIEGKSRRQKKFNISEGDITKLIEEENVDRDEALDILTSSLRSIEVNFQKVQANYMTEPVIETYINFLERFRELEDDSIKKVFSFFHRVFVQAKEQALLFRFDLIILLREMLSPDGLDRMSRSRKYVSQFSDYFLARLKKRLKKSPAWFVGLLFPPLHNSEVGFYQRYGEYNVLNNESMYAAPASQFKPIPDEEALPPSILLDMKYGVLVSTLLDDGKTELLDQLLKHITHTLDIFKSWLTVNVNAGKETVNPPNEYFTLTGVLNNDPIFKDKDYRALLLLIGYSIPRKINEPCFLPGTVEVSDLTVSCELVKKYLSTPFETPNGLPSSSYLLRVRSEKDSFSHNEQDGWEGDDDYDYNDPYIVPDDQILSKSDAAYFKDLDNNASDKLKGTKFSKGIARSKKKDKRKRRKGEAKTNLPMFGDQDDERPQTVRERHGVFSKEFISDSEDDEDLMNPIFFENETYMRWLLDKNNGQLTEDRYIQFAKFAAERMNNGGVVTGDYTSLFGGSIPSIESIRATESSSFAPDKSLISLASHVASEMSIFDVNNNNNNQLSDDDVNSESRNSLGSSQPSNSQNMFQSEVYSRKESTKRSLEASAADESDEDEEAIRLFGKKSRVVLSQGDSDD

[2] = target: T2, Tof1-Csm3 complex (S. cerevisiae (budding yeast), UniProt P53840 1-1238; Q04659 1-317); experiment: pull-down; Flag-tagged Chl1 (200-600 nM) held on anti-Flag M2 magnetic beads; Tof1-Csm3 as prey; interaction buffer
T2 construct: Tof1, budding yeast; Csm3, budding yeast; Held on calmodulin dynabeads when used as bait; source: purified as previously described (Yeeles et al. 2017)

[3] = target: T3, cohesin tetramer complex (Smc1-Smc3-Scc1-Scc3) (S. cerevisiae (budding yeast), UniProt P32908 1-1225; P47037 1-1230; Q12158 1-566; P40541 1-1150); experiment: pull-down; cohesin tetramer (200-600 nM) held on Protein A dynabeads by anti-Pk antibody (Pk tag on Smc1); 200 nM prey, 30 °C, 5 min; 25 mM HEPES-KOH pH 7.6, 100 mM potassium glutamate, 10 mM magnesium acetate, 0.12% NP-40; SDS elution, Coomassie staining
T3 construct: Smc1, cohesin subunit, budding yeast; Smc3, cohesin subunit, budding yeast; Scc1, cohesin subunit, budding yeast; Scc3, cohesin subunit, budding yeast; also called cohesin complex; source: purified as previously described (Minamino et al. 2018): IgG agarose, 3C protease cleavage; copies: + + +
T3 sequence (Q12158 whole entry, chain 3 of 2): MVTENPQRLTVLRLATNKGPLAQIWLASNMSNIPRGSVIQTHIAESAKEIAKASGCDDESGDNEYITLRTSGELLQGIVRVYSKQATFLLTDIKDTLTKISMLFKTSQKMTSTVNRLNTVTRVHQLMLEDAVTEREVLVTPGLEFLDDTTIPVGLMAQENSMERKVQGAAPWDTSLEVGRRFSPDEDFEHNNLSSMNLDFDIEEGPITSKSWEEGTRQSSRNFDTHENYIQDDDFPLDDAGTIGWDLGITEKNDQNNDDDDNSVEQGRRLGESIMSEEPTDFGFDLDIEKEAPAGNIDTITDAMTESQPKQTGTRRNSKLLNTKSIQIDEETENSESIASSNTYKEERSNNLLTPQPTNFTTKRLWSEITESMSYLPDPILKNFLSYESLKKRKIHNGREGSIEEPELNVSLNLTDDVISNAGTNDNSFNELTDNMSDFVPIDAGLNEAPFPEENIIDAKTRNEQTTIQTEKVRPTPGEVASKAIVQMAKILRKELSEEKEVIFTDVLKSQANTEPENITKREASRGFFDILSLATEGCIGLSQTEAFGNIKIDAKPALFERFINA
T3 sequence (P40541 whole entry, chain 4 of 2): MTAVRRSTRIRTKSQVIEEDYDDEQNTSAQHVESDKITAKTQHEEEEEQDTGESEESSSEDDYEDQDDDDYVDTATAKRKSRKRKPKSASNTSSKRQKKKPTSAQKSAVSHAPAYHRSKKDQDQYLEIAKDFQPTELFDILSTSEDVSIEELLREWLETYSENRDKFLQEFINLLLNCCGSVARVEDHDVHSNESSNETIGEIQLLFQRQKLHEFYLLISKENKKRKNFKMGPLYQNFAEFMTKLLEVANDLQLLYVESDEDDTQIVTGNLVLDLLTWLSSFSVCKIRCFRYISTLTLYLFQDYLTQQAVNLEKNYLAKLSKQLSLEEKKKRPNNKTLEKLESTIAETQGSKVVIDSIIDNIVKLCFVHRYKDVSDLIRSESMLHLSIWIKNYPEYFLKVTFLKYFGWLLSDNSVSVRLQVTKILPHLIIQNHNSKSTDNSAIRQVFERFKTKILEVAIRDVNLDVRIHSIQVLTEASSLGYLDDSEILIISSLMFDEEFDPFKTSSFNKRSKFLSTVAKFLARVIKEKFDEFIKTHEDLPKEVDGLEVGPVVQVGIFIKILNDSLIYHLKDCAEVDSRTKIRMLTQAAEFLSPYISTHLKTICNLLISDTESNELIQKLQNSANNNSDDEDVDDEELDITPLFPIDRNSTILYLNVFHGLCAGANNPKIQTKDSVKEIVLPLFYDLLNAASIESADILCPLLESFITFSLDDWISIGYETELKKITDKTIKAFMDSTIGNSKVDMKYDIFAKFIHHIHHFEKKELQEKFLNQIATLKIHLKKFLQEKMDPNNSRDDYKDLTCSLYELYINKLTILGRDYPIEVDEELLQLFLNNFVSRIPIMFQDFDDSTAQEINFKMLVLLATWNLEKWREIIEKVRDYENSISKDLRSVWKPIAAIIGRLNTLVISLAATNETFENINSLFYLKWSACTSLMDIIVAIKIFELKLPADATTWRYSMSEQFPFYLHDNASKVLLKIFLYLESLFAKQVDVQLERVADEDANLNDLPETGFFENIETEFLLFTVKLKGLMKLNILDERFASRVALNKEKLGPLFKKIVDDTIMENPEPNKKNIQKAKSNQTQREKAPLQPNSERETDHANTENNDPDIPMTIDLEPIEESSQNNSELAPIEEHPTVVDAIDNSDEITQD

B1: Smc3 (natural protein, S. cerevisiae (budding yeast), UniProt P47037 1-1230, looked up)
chain: MYIKRVIIKGFKTYRNETIIDNFSPHQNVIIGSNGSGKSNFFAAIRFVLSDDYSNLKREERQGLIHQGSGGSVMSASVEIVFHDPDHSMILPSGVLSRGDDEVTIRRTVGLKKDDYQLNDRNVTKGDIVRMLETAGFSMNNPYNIVPQGKIVALTNAKDKERLQLLEDVVGAKSFEVKLKASLKKMEETEQKKIQINKEMGELNSKLSEMEQERKELEKYNELERNRKIYQFTLYDRELNEVINQMERLDGDYNNTVYSSEQYIQELDKREDMIDQVSKKLSSIEASLKIKNATDLQQAKLRESEISQKLTNVNVKIKDVQQQIESNEEQRNLDSATLKEIKSIIEQRKQKLSKILPRYQELTKEEAMYKLQLASLQQKQRDLILKKGEYARFKSKDERDTWIHSEIEELKSSIQNLNELESQLQMDRTSLRKQYSAIDEEIEELIDSINGPDTKGQLEDFDSELIHLKQKLSESLDTRKELWRKEQKLQTVLETLLSDVNQNQRNVNETMSRSLANGIINVKEITEKLKISPESVFGTLGELIKVNDKYKTCAEVIGGNSLFHIVVDTEETATLIMNELYRMKGGRVTFIPLNRLSLDSDVKFPSNTTTQIQFTPLIKKIKYEPRFEKAVKHVFGKTIVVKDLGQGLKLAKKHKLNAITLDGDRADKRGVLTGGYLDQHKRTRLESLKNLNESRSQHKKILEELDFVRNELNDIDTKIDQVNGNIRKVSNDRESVLTNIEVYRTSLNTKKNEKLILEESLNAIILKLEKLNTNRTFAQEKLNTFENDLLQEFDSELSKEEKERLESLTKEISAAHNKLNITSDALEGITTTIDSLNAELESKLIPQENDLESKMSEVGDAFIFGLQDELKELQLEKESVEKQHENAVLELGTVQREIESLIAEETNNKKLLEKANNQQRLLLKKLDNFQKSVEKTMIKKTTLVTRREELQQRIREIGLLPEDALVNDFSDITSDQLLQRLNDMNTEISGLKNVNKRAFENFKKFNERRKDLAERASELDESKDSIQDLIVKLKQQKVNAVDSTFQKVSENFEAVFERLVPRGTAKLIIHRKNDNANDHDESIDVDMDAESNESQNGKDSEIMYTGVSISVSFNSKQNEQLHVEQLSGGQKTVCAIALILAIQMVDPASFYLFDEIDAALDKQYRTAVATLLKELSKNAQFICTTFRTDMLQVADKFFRVKYENKISTVIEVNREEAIGFIRGSNKFAEV
notes: Smc3, budding yeast; the Smc3 chain of m1; Stood in the cross-linking sample as a chain of cohesin; source: purified as part of cohesin, as previously described (Minamino et al. 2018)
**Q.** Does B1 bind [1]?
**A.** binds

B2: Chl1 (natural protein, S. cerevisiae (budding yeast), UniProt P22516 1-861, looked up)
chain: MDKKEYSETFYHPYKPYDIQVQLMETVYRVLSEGKKIAILESPTGTGKTLSLICATMTWLRMNKADIFTRMETNIKTNEDDSENLSDDEPDWVIDTYRKSVLQEKVDLLNDYEKHLNEINTTSCKQLKTMCDLDKEHGRYKSVDPLRKKRKGARHLDVSLEEQDFIPRPYESDSENNDTSKSTRGGRISDKDYKLSELNSQIITLLDKIDGKVSRDPNNGDRFDVTNQNPVKIYYASRTYSQLGQFTSQLRLPSFPSSFRDKVPDEKVKYLPLASKKQLCINPKVMKWKTLEAINDACADLRHSKEGCIFYQNTNEWRHCPDTLALRDMIFSEIQDIEDLVPLGKSLGICPYYASREALPIAEVVTLPYQYLLSESTRSSLQINLENSIVIIDEAHNLIETINSIYSSQISLEDLKNCHKGIVTYFNKFKSRLNPGNRVNLLKLNSLLMTLIQFIVKNFKKIGQEIDPNDMFTGSNIDTLNIHKLLRYIKVSKIAYKIDTYNQALKEEESSKNENPIKETHKKSVSSQPLLFKVSQFLYCLTNLTSEGQFFFEKNYSIKYMLLEPSKPFESILNQAKCVVLAGGTMEPMSEFLSNLLPEVPSEDITTLSCNHVIPKENLQTYITNQPELEFTFEKRMSPSLVNNHLFQFFVDLSKAVPKKGGIVAFFPSYQYLAHVIQCWKQNDRFATLNNVRKIFYEAKDGDDILSGYSDSVAEGRGSLLLAIVGGKLSEGINFQDDLCRAVVMVGLPFPNIFSGELIVKRKHLAAKIMKSGGTEEEASRATKEFMENICMKAVNQSVGRAIRHANDYANIYLLDVRYNRPNFRKKLSRWVQDSINSEHTTHQVISSTRKFFSMRSLNSR
notes: Chl1, budding yeast; codon-optimized ectopic copy; also called Flag-tagged Chl1; Chl1 helicase
**Q.** Does B2 bind [2]?
**A.** binds

**Q.** Does B2 bind [3]?
**A.** binds

B3: Smc1 (natural protein, S. cerevisiae (budding yeast), UniProt P32908 1-1225, looked up)
chain: MGRLVGLELSNFKSYRGVTKVGFGESNFTSIIGPNGSGKSNMMDAISFVLGVRSNHLRSNILKDLIYRGVLNDENSDDYDNEGAASSNPQSAYVKAFYQKGNKLVELMRIISRNGDTSYKIDGKTVSYKDYSIFLENENILIKAKNFLVFQGDVEQIAAQSPVELSRMFEEVSGSIQYKKEYEELKEKIEKLSKSATESIKNRRRIHGELKTYKEGINKNEEYRKQLDKKNELQKFQALWQLYHLEQQKEELTDKLSALNSEISSLKGKINNEMKSLQRSKSSFVKESAVISKQKSKLDYIFKDKEKLVSDLRLIKVPQQAAGKRISHIEKRIESLQKDLQRQKTYVERFETQLKVVTRSKEAFEEEIKQSARNYDKFKLNENDLKTYNCLHEKYLTEGGSILEEKIAVLNNDKREIQEELERFNKRADISKRRITEELSITGEKLDTQLNDLRVSLNEKNALHTERLHELKKLQSDIESANNQEYDLNFKLRETLVKIDDLSANQRETMKERKLRENIAMLKRFFPGVKGLVHDLCHPKKEKYGLAVSTILGKNFDSVIVENLTVAQECIAFLKKQRAGTASFIPLDTIETELPTLSLPDSQDYILSINAIDYEPEYEKAMQYVCGDSIICNTLNIAKDLKWKKGIRGKLVTIEGALIHKAGLMTGGISGDANNRWDKEEYQSLMSLKDKLLIQIDELSNGQRSNSIRAREVENSVSLLNSDIANLRTQVTQQKRSLDENRLEIKYHNDLIEKEIQPKITELKKKLDDLENTKDNLVKEKEALQNNIFKEFTSKIGFTIKEYENHSGELMRQQSKELQQLQKQILTVENKLQFETDRLSTTQRRYEKAQKDLENAQVEMKSLEEQEYAIEMKIGSIESKLEEHKNHLDELQKKFVTKQSELNSSEDILEDMNSNLQVLKRERDGIKEDIEKFDLERVTALKNCKISNINIPISSETTIDDLPISSTDNEAITISNSIDINYKGLPKKYKENNTDSARKELEQKIHEVEEILNELQPNARALERYDEAEGRFEVINNETEQLKAEEKKILNQFLKIKKKRKELFEKTFDYVSDHLDAIYRELTKNPNSNVELAGGNASLTIEDEDEPFNAGIKYHATPPLKRFKDMEYLSGGEKTVAALALLFAINSYQPSPFFVLDEVDAALDITNVQRIAAYIRRHRNPDLQFIVISLKNTMFEKSDALVGVYRQQQENSSKIITLDLSNYAE
notes: Smc1, budding yeast; the Smc1 chain of m1; Stood in the cross-linking sample as a chain of cohesin; source: purified as part of cohesin, as previously described (Minamino et al. 2018)
**Q.** Does B3 bind [1]?
**A.** binds

B4: Csm3 (natural protein, S. cerevisiae (budding yeast), UniProt Q04659 1-317, looked up)
chain: MDQDFDSLLLGFNDSDSVQKDPTVPNGLDGSVVDPTIADPTAITARKRRPQVKLTAEKLLSDKGLPYVLKNAHKRIRISSKKNSYDNLSNIIQFYQLWAHELFPKAKFKDFMKICQTVGKTDPVLREYRVSLFRDEMGMSFDVGTRETGQDLERQSPMVEEHVTSAEERPIVADSFAQDKRNVNNVDYDNDEDDDIYHLSYRNRRGRVLDERGNNETVLNNVVPPKEDLDALLKTFRVQGPVGLEENEKKLLLGWLDAHRKMEKGSMTEEDVQLIQSLEEWEMNDIEGQHTHYDLLPGGDEFGVDQDELDAMKEMGF
notes: Csm3, budding yeast; the Csm3 chain of m2; Stood in the cross-linking sample as a chain of the Tof1-Csm3 complex; source: purified as part of Tof1-Csm3, as previously described (Yeeles et al. 2017)
**Q.** Does B4 bind [1]?
**A.** binds
